This note sets out measurements from publication doi:10.1101/478511 (bioRxiv, 2018).

For the experiment, the target named is WT His-BRCA1(1-500)-BARD1(27-327) heterodimer (UniProt P38398 1-500; Q99728 27-327). Kind of experiment: pull-down.
Sequence of WT His-BRCA1(1-500)-BARD1(27-327) heterodimer (P38398 1-500, chain 1 of 2): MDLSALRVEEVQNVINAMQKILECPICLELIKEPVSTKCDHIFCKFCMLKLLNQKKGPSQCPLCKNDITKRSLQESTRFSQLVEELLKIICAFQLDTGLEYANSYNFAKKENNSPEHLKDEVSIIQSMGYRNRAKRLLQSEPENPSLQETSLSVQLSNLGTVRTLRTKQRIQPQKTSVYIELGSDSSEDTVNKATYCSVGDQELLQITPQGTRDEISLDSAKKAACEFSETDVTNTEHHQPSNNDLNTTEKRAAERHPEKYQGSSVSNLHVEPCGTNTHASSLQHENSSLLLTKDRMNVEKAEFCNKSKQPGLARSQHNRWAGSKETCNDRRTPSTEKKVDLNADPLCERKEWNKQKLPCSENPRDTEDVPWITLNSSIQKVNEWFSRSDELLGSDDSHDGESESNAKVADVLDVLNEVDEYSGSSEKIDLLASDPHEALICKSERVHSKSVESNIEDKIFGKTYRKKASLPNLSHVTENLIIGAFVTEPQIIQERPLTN
Sequence of WT His-BRCA1(1-500)-BARD1(27-327) heterodimer (Q99728 27-327, chain 2 of 2): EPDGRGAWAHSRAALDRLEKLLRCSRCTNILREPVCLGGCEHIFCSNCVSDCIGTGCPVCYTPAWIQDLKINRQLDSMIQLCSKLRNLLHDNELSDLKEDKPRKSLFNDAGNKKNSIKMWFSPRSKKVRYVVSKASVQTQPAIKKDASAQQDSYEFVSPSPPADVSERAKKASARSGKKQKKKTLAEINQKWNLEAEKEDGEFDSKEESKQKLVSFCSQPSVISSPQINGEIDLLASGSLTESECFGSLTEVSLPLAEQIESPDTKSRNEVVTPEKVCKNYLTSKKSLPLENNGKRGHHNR

B1: Human recombinant RAD51 (Abcam) (natural protein)
chain: MAMQMQLEANADTSVEEESFGPQPISRLEQCGINANDVKKLEEAGFHTVEAVAYAPKKELINIKGISEAKADKILAEAAKLVPMGFTTATEFHQRRSEIIQITTGSKELDKLLQGGIETGSITEMFGEFRTGKTQICHTLAVTCQLPIDRGGGEGKAMYIDTEGTFRPERLLAVAERYGLSGSDVLDNVAYARAFNTDHQTQLLYQASAMMVESRYALLIVDSATALYRTDYSGRGELSARQMHLARFLRMLLRLADEFGVAVVITNQVVAQVDGAAMFAADPKKPIGGNIIAHASTTRLYLRKGRGETRICKIYDSPCLPEAEAMFAINADGVGDAKD
B1: the binding result is listed as “binds”.
